Data as given in paper doi:10.1101/2025.04.07.647595, “Real-time tracking of mRNP complex assembly reveals various mechanisms that synergistically enhance translation repression”.

Target: T1, Sxl-dRBD5 (UniProt P19339 122-305)
T1 sequence: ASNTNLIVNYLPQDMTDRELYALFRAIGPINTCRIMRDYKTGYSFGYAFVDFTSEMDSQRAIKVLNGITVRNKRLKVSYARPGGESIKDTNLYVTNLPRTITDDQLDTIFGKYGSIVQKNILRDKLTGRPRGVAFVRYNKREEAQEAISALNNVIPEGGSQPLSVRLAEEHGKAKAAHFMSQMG
Assay: NMR; BMRB 52948; C-terminal helix forms on RNA binding; FP: 10 mM Tris/HCl pH 7.5, 20 mM KCl, 25 mM NaCl, 0.005% NP-40; ITC: 50 mM Tris/HCl pH 7.5, 50 or 150 mM KCl, 298 K; smFRET: 50 mM salt at 21 C, or 150 mM at 29 C for Hrp48 assays
Conditions: protein: recombinant; tags: His6-Trx-TEV removed

UUUUUUUUUU (ssRNA) [U10-mer RNA]
binding result: binds
